Laboratory results reported in the DeepSol protein solubility set.

Assay: soluble on expression in E. coli; label from the status in PepcDB or PDB records

Sequence | soluble on expression in E. coli
AVTFAVMVSDAPSLDESKLKTPYSSTIYDKNGKEIAEVGAEKRTYVSIDEIPDVVKEAFIATEDARFYEHHGIDPVRIGGALVANFKDGFGAEGGSTITQQVVKNSLLSHQKTLKRKVQEVWLSIQLERNYSKDEILEMYLNRIYFSPRAYGIGKAAEEFFGVTDLSKLTVEQAATLAGMPQSPTAYNPVKNPDKAEKRRNIVLSLMKKQGFISDSQYNKAKKVAVKDEGVVSQKEYEKASTNKYSAFVEEVMKEIDEKSDVDPSADGLKIYTTLDTKAQDKLDELMDGDTVGFTEGMQGGVTLLDTKNGEVRAIGAGRNQPVGGFNYATQTKAQPGSTIKPILDYGPVIENKKWSTYEQIDDSAYTYSNGKPIRDWDRKYLGPISMRYALAQSRNIPALKAFQAVGKDTAVDFANGLGLGLTKDNVTEAYSIGGFGGNDGVSPLTMAGAYSAFGNNGTYNEPHFVKSIEFNDGTKLDLTPKSKSAMSDYTAFMITDMLKTAVKTGTGQLAQVPGVEVAGKTGTTNFDDNEVKRYNIASGGARDSWFVGYTPQYTAAVWTGMGENEAGKKSLSAEEQKVAKRIFAQLIADVDDGSGSFEKPDSVVEATVEKGSNPAKLAGPNTPSDKKLTEYFVKGTAPSTVSKTYEKEEKEETAKLSGLNVKYDKDNQSLTLSWNYDGDATFAVKQSVDGGSYSEIQNSSAKEAVISGVQPGSVYKFEVTAVSDDGKSTASTSYEVPKAEDDEDKKDQQQTDDEKQDDEKTQDDTQTDDSQKDDGQTDQDQTDDSTNDQDKKQDNTNTNPSDNNNQDQSNDNDNDNSNNQDTSDGDSNSGKNDSTGSDTNKNKTDTSNKTQTNSSSIEKT | not soluble
CIPLWGTVSIQGNRSEMEDAFAVSPHFLKLPIKMLMGDHEGMSPSLTHLTGHFFGVYDGHGGHKVADYCRDRLHFALAEEIERIKDELCKRNTGEGRQVQWDKVFTSCFLTVDGEIEGKIGRAVVGSSDKVLEAVASETVGSTAVVALVCSSHIVVSNCGDSRAVLFRGKEAMPLSVDHKPDREDEYARIENAGGKVIQWQGARVFGVLAMSRSIGDRYLKPYVIPEPEVTFMPRSREDECLILASDGLWDVMNNQEVCEIARRRILMWHKKNGAPPLAERGKGIDPACQAAADYLSMLALQKGSKDNISIIVIDLKAQRK | soluble
CLEDILSATKMVINLCLPQFRPRIHCNKISADGYEVENLISEDLTKRSHGFRTEYFIKPPVYVTVSFPFNVEICRINIDLTAGGGQNVTGLEMYTSASSSRVSWNTPQCRTLGPAEPSVPDKEAFTLVGKVLLKNQSQVVFSHRGFKARPPFGAMEATLPSPAVVAQELWNKGALSLSHVAHLRICITHVTGGGIPCIKRLEVWGQPAKTCSQEVIDSILLVTSENLPQDVALQAPALPMESDCDPGDQPESQQAPSSLQKLAEIIQDVPEEFLDPITLEIMPCPMLLPSGKVIDQSTLEKCNRSEATWGRVPSDPFTGVAFTPHSQPLPHPSLKARIDHFLLQHSIPGCHLLGRAQTALAVIPSSIVLPSQKRKIEQAEHVPDSNFGVNASCFSATSPLVLPTTSEHTAKKMKATNEPSLTHMDCSTGPLSHEQKLSQSLEIALASTLGSMPSFTARLTRGQLQHLGTRGSNTSWRPGTGSEQPGSILGPECASCKRVFSPYFKKEPVYQLPCGHLLCRPCLGEKQRSLPMTCTACQRPVASQDVLRVHF | soluble
CPQEDSDIAFLIDGSGSIIPHDFRRMKEFVSTVMEQLKKSKTLFSLMQYSEEFRIHFTFKEFQNNPNPRSLVKPITQLLGRTHTATGIRKVVRELFNITNGARKNAFKILVVITDGEKFGDPLGYEDVIPEADREGVIRYVIGVGDAFRSEKSRQELNTIASKPPRDHVFQVNNFEALKTIQNQLREKIFAIGSPGI | soluble
CSCSPVHPQQAFCNADIVIRAKAVNKKEVDSGNDIYGNPIKRIQYEIKQIKMFKGPDQDIEFIYTAPAAAVCGVSLDIGGKKEYLIAGKAEGNGNMHITLCDFIVPWDTLSATQKKSLNHRYQMGCECKITRCPMIPCYISSPDECLWMDWVTEKNINGHQAKFFACIKRSDGSCAWYRGAAPP | soluble
CSKNRKAKAKPVTRGTGAGSRPRGQNKERPPPVPNPDYEPIRKGQRDLYSGLNQRAV | soluble
CSSPKPDAEEQGVPVSPTASDPALLAEIRQSLDATKGLTSVHVAVRTTGKVDSLLGITSADVDVRANPLAAKGVCTYNDEQGVPFRVQGDNISVKLFDDWSNLGSISELSTSRVLDPAAGVTQLLSGVTNLQAQGTEVIDGISTTKITGTIPASSVKMLDPGAKSARPATVWIAQDGSHHLVRASIDLGSGSIQLTQSKWNEPVNVD | soluble
DARFSLGGYAGGMYDVHVKNSWYVQPQLLFTYEEFRSKTRLGTDSFFSKFNLELPILASYNVALNNKWNLHINAGPYLSYAMFGRDKSIDYAYGNGMHSSLGWWHQDFPDHFTYGGRAGVSLESEHFIYTIDGKCSLRKRPFGRSVSLSAGVGYKF | not soluble
DCEKEGEVQWFALPVVLVSGCKKERAIEMKLPTEALFACLQNYPHLRALTQETQWLPYLVHSSDLSAVAPDEWWRAKQNTEAAAQHLRRFAPRPLLLPEGQSVHVVYALGFGSGKVQTALGQNLLQAGLPLMQVWQENLASEGVTLFANPLSPDSPVRALSDGSHTRQRMAMDVFAANAIRAVRMQSPR | not soluble
DCYCRIPACIAGEKKYGTCIYQGKLWAFCC | soluble
DDSAVTLFIPGYAGNRFSFGGMLQRFTAGGIANKSLVVMIDRHNHPHVTGELDAYRPMVQLIFATPRVAVRQQAAGVLAVVQYLIAHEHVQTINLVAHSMGGVVLFQYLTTAAKLVNLPEVRKVVTIGAPFNDSEVGQNTYPIENHPLTATGPTKTTPVYNYFLRTLQRLPNTISYLNIAGNIGDAAQSDGAVALNSALSLRFLLRPTRDQYQEFVVHGKNARHSRLHENYEVDRQIVQFFISRSHKKGCW | not soluble
DEGYWDCSVCTFRNSAEAFKCMMCDVRKGTSTRKPRPVSQ | soluble
DEILIDPHAVLGPVDPQLMNYPAPSILKVVEKKEPKDIDDKTLIMADIAEKAINQVRETVFNLLKDKMDEEKAREVAKILTEGRWTHDYPLTVEELRQLGLKVSTDVPEEVYELMELYPQPMMQRHPGVEFVPSPPKGEKPSFK | not soluble
DERKRQESLIQSMFMPREILRASLSDVDLNDDGRIKAIRFAERFVAEYEPGKKMKGLYLHGSFGVGKTYLLAAIANELAKRNVSSLIVYVPELFRELKHSLQDQTMNEKLDYIKKVPVLMLDDLGAEAMSSWVRDDVFGPILQYRMFENLPTFFTSNFDMQQLAHHLTYSQRGEEEKVKAARIMERIRYLAYPIEITGPNRR | soluble
DFEDVHIAEARVDVPSTWRDQIVNTNAVATETHPLKCAEVETQTGSKDNQGTQTDDAGGGRPPSPSKVQASGVADFMAKVEGMVAGELVKATEEHEVLEPFTRAADDEQEPATCIHYLSPFQQDAA | not soluble
DGRRMVQGLLTASLLTSIGGDLEVLASRMDLQFQRPVYTGETLVCELTVVSADPHTDGGVALVGDVAVRRVNRDDNSGQADTAAP | not soluble
DGTVLPGPVPVTVAVRAPGDENDEDASGEASTPNAVRPRTSCRRDRFVAGIVRGTFHPDLYMCSQDCITFKGKRIGRSKFEKLGNSSMAKWHRSIRVIREDGELEPLGEWLTRHGLPVLKGKQRISRKRTIRI | not soluble
DGYIGVMIDDLVTKGTIEPYRLLTSRAEYRLILRHDNADMRLTEMGREIGLVDDERWARFEIKKNQFDNEMKRLDSIKLKPVKETNAKVEEMGFKPLTDAVTAKEFLRRPEVSYQDVVAFIGPAAEDLDDKIIELIETEIKYEGYISKAMDQVAKMKRMEEKRIPANIDWDDIDSIATEARQKFKLINPETIGQASRISGVNPADISILMVYLEG | not soluble
DIELTQSPATLSVTPGNSVSISCRASQSLVNEDGNTYLFWYQQKSHESPRLLIKYASQSISGIPSRFSGSGSGTDFTLSINSVETEDLAVYFCQQITDWPFTFGGGTKLEIKRADAAPTVSIFPPSSEQLTSGGASVVCFLNNFYPKDINVKWKIDGSERQNGVLNSWTDQDSKDSTYSMSSTLTLTKDEYERHNSYTCEATHKTSTSPIVKSFNRNEC | soluble
DIEVSEDVRKEQLGWLSCVSRAILKQNIITYSQPIVHAYSHLPASQECLVRILEEDGTVIAPGRFLPIISDTHLYTRLSRHMIRSTLHYMRDKKGDFSINLSPQDLLSDKTLMLLEHEISQLNDPTRIGLEVLESEQIKDYGRMIEVCSHFRKLGARIIVDDFGSGYSNIDEILKLEPEVIKLDGSLIRDIDKDLKQRKIASQLVRLCQVFNAETVAEFVHNREVCKIAQDMGVDYLQGYYLGEP | not soluble
DIGCYTLGNAPPLELIDTCLCMGAGISIAGGISRTTKNSKNVAFIGDSTFFHSGIPAVINAVYNNADVTIAVLDNRTTAMTGHQPHPGTGKTALGKPTKLIDIEGILKSCGVEFVKTVSADDFSACKEISKEVIEYNGPSAVVFRGNCVSLVKSDKKYVIDK | not soluble
DISEELDYERGRYLDAMIDNHKYTGKARAIIYGQPELALALAKVCFENGVNVKLIALGAKNKILEEALKEEIKSQREEVLVLDDTDFDTIEKYAKEFNVNLFIGNSDGRRMASRLGIEIIRVGFPIHDRV | not soluble
DIVMTQSHKFMSTSVGDRVSITCKASQDVSTAVAWYQQKPGQSPKLLISWASTRHTGVPDRFTGSGSGTDYTLTISSVQAEDLALYYCQQHYTTPLTFGAGTKLELKRADAAPTVSIFPPSSEQLTSGGASVVCFLNNFYPKDINVKWKIDGSERQNGVLNSWTDQDSKDSTYSMSSTLTLTKDEYERHNSYTCEATHKTSTSPIVKSFNRN | soluble
DKIAIIGSRRMSVYTKNCVFSLASMLKNAHLCVVSGGALGVDITASMAAMPNTIGIFANGLDQIYPRTNEKIIKQIYENALALSEYEDDYLPKNYDFLLRNRLVIALSKAVVVAQADIKSGSMQSAKLALELNKPLYVLPQRLGESTATNLLLKENKAKLICDFKEFVSEFASID | not soluble
DLSKNSDVAYLWCSSNKLTSLNLSGVKGLSVLVCHSNQIAGEEMTKVVNALPTLSPGAGAQSKFVVVDLKDTDEKNICTVKDVEKAKSKNWRVFDFNGDSDNMLPYEGSPTSNLAVDAPTVRIYPNPVGRYALVEIPESLLGQEAALYDMNGVKVYSFAVESLRQNIDLTHLPDGTYFFRLDNYTTKLIKQ | not soluble
DNNNTIEEQLNTLEKYSQGRLGVALINTEDNSQITYRGEERFAMASTSKVMAVAAVLKASEKQAGLLDKNITIKKSDLVAYSPITEKHLTTGMTLAELSAATLQYSDNTAMNKILDYLGGPAKVTQFARSINDVTYRLDRKEPELNTAIHGDPRDTTSPIAMAKSLQALTLGDALGQSQRQQLVTWLKGNTTGDNSIKAGLPKHWVVGDKTGSGDYGTTNDIAVIWPENHAPLILVVYFTQQEQNAKYRKDIIAKAAEIVTKEISNSPQTK | soluble
DNTQHYRELFLDDIPLMDVRAPVEYHKGAFPNTVNRPLMNDIERQKVGTSYKQHGQQAAIALGHELVCGALKAERLAAWKAFAEANPNGYLYCFRGGLRSQIVQQWLKQDAGIDYPRVIGGYKALRNFLFETTRAAVDECDFVLVGGLTGCGKTEVIAALDNSLDLEGHANHRGSSFGRRATPQPAQIDFENRLAIDILKKRHRGVGQFVLEDEGRIVGSCSLPLELYQGMQGYPLVWLEDAFEQRVERILRDYVIDLRSEFERVVGVEEGFAAFSAYLQKSLAGIVKRLGGERYQRLAAILVQALEEQGRDGSVDTHRGWIEGLLKEYYDPMYAFQRQSKEDRVEFRGNQAEVIGYLR | not soluble
